The text below walks through data of article PMC7794802, “The Interactome of Cancer-Related Lysyl Oxidase and Lysyl Oxidase-Like Proteins” (Cancers, 2020).

Experiment [1] concerns the target human α5β1 integrin, full-length (Millipore CC1027) (human) (UniProt P08648). Nature of the experiment: BLI; inhibition: α5β1 integrin at 35.5 µg/mL preincubated one hour at room temperature with or without RGD peptide at 50 µg/mL, then LOXL2-coated AR2G sensor dipped in it; same buffer as the kinetics. A general note: BLI is a label-free optical method that tracks binding on a fibre tip over time.

The target of a further experiment is T1, SPARC (UniProt P09486 18-303).
T1 construct: SPARC; also called immobilized SPARC
T1 sequence (looked up): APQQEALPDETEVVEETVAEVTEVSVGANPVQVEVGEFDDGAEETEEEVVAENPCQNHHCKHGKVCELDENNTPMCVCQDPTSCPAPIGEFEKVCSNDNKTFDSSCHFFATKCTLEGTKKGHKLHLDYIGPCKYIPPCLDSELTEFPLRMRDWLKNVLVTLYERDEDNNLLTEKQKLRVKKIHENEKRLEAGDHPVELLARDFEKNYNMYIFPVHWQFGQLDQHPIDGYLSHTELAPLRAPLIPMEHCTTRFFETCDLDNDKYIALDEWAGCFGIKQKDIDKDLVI
The experiment can be described thus: SPR; BIAcore T100; ligands covalently immobilised by amine coupling on CM5 or CM3 (collagen XVII) sensor chips; LOXL2, SRCR 1-2 and SRCR 1-4 injected in 10 mM Hepes pH 7.4, 150 mM NaCl, 0.05% P20. A general note: In SPR one partner is held on a chip, and binding of the other changes the refractive index at the surface.

Experiment [2] concerns the target T2, human α5β1 integrin, full-length (Millipore CC1027) (human, UniProt P08648 42-1049; P05556 21-798).
T2 construct: integrin alpha-5 subunit of human α5β1 integrin; integrin beta-1 subunit of human α5β1 integrin; Used in buffer with 50 mM β-octyl-D-glucopyranoside, MgCl2 and MnCl2; The source is told for the BLI assays only; also called full-length α5β1 integrin; source: bought: Millipore, Merck, CC1027
Nature of the experiment: SPR; SPR imaging, BIAcore Flexchip; α5β1 integrin (29.3 µg/mL) as analyte recirculated over ECM arrays including spotted LOXL2; 10 mM Hepes pH 7.4, 150 mM NaCl, 50 mM β-octyl-D-glucopyranoside, 2 mM MgCl2, 2 mM MnCl2. As to conditions: both partners purified.

Experiment [3] concerns the target T2, human α5β1 integrin, full-length …. Nature of the experiment: BLI; inhibition: α5β1 integrin at 35.5 µg/mL preincubated one hour at room temperature with or without RGD peptide at 50 µg/mL, then LOXL2-coated AR2G sensor dipped in it; same buffer as the kinetics. As to conditions: both partners purified.

T2 sequence (P08648 42-1049, chain 1 of 2): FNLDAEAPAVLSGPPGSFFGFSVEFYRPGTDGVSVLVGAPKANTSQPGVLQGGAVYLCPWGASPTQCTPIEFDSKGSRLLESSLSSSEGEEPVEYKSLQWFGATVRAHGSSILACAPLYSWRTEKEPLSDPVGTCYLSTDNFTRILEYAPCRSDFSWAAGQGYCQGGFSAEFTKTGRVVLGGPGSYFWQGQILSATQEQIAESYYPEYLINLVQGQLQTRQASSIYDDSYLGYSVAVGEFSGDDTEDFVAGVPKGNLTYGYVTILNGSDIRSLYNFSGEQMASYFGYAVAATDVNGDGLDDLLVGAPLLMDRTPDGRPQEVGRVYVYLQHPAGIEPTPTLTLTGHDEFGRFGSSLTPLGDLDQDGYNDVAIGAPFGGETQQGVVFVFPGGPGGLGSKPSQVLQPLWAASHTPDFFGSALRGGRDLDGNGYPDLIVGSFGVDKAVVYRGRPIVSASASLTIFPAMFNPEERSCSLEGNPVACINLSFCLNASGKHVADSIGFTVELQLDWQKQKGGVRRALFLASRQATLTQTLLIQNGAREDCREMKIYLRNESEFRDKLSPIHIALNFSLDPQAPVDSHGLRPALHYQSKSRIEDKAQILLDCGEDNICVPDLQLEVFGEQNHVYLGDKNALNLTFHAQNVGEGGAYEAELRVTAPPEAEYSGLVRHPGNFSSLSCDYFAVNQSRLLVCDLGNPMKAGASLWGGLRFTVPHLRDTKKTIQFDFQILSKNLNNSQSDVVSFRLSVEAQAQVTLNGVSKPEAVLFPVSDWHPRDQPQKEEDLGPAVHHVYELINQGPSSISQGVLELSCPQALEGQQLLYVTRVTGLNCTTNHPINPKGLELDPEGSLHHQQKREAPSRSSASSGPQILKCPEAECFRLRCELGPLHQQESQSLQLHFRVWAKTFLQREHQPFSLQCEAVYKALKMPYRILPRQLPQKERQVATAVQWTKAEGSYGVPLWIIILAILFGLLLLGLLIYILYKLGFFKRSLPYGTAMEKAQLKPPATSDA
T2 sequence (P05556 21-798, chain 2 of 2): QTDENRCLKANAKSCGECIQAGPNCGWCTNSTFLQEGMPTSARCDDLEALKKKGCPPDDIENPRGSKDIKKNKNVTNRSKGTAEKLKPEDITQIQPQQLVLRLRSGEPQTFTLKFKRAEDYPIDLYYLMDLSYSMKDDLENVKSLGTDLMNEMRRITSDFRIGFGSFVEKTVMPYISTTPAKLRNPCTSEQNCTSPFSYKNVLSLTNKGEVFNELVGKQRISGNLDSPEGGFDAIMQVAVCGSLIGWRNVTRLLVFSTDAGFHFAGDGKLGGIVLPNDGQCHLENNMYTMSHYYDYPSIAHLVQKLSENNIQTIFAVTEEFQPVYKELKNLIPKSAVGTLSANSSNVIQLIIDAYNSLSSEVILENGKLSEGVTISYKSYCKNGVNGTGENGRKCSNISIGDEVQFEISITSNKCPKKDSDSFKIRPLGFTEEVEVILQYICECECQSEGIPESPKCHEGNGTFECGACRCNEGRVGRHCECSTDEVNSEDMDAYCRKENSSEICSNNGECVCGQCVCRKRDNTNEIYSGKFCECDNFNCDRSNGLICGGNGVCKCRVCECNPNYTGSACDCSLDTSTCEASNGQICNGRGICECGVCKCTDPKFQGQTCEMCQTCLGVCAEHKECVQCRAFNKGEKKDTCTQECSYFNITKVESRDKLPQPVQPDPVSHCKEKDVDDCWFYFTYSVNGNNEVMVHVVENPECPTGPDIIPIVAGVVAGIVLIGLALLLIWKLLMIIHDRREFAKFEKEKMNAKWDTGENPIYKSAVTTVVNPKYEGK
human α5β1 integrin, full-length (Millipore CC1027) (human), sequence (P08648 42-1049, chain 1 of 2): as the sequence (P08648 42-1049, chain 1 of 2) above
human α5β1 integrin, full-length (Millipore CC1027) (human), sequence (P05556 21-798, chain 2 of 2, further chain): as the sequence (P05556 21-798, chain 2 of 2) above

On to RGD peptide (Sigma-Aldrich, A8052), for which the percent decrease of the binding of α5β1 integrin to LOXL2 in experiment [1] is 24.9%.

B1: LOXL2 N-terminal scavenger receptor cysteine-rich domains SRCR 1-2 (residues 58-302) (domain or fragment, UniProt Q9Y4K0 58-302, looked up)
chain: LRLAGQKRKHSEGRVEVYYDGQWGTVCDDDFSIHAAHVVCRELGYVEAKSWTASSSYGKGEGPIWLDNLHCTGNEATLAACTSNGWGVTDCKHTEDVGVVCSDKRIPGFKFDNSLINQIENLNIQVEDIRIRAILSTYRKRTPVMEGYVEVKEGKTWKQICDKHWTAKNSRVVCGMFGFPGERTYNTKVYKMFASRRKQRYWPFSMDCTGTEAHISSCKLGPQVSLDPMKNVTCENGLPAVVSCV
notes: LOXL2, SRCR domains 1-2, residues 58-302; also called SRCR 1-2 domain; source: expressed as recombinant protein as previously described [62]
By Kd is commonly meant a measure of binding affinity in units of concentration. As for B1, in the experiment with SPARC (both partners purified), the dissociation constant Kd was found to be 21.4 nM.

B2: lysyl oxidase-like 2 (LOXL2), full-length recombinant protein (enzyme, UniProt Q9Y4K0 26-774, looked up)
chain: QYDSWPHYPEYFQQPAPEYHQPQAPANVAKIQLRLAGQKRKHSEGRVEVYYDGQWGTVCDDDFSIHAAHVVCRELGYVEAKSWTASSSYGKGEGPIWLDNLHCTGNEATLAACTSNGWGVTDCKHTEDVGVVCSDKRIPGFKFDNSLINQIENLNIQVEDIRIRAILSTYRKRTPVMEGYVEVKEGKTWKQICDKHWTAKNSRVVCGMFGFPGERTYNTKVYKMFASRRKQRYWPFSMDCTGTEAHISSCKLGPQVSLDPMKNVTCENGLPAVVSCVPGQVFSPDGPSRFRKAYKPEQPLVRLRGGAYIGEGRVEVLKNGEWGTVCDDKWDLVSASVVCRELGFGSAKEAVTGSRLGQGIGPIHLNEIQCTGNEKSIIDCKFNAESQGCNHEEDAGVRCNTPAMGLQKKLRLNGGRNPYEGRVEVLVERNGSLVWGMVCGQNWGIVEAMVVCRQLGLGFASNAFQETWYWHGDVNSNKVVMSGVKCSGTELSLAHCRHDGEDVACPQGGVQYGAGVACSETAPDLVLNAEMVQQTTYLEDRPMFMLQCAMEENCLSASAAQTDPTTGYRRLLRFSSQIHNNGQSDFRPKNGRHAWIWHDCHRHYHSMEVFTHYDLLNLNGTKVAEGHKASFCLEDTECEGDIQKNYECANFGDQGITMGCWDMYRHDIDCQWVDITDVPPGDYLFQVVINPNFEVAESDYSNNIMKCRSRYDGHRIWMYNCHIGGSFSEETEKKFEHFSGLLNNQLSPQ
notes: lysyl oxidase-like 2 (LOXL2), full-length recombinant protein made in the laboratory; As a secreted recombinant protein it probably lacks its signal peptide (surmise); also called full-length LOXL2; soluble LOXL2; source: expressed as recombinant protein as previously described [62]
Take B2: in the experiment with SPARC, the KD1 (site 1, heterogeneous ligand model) worked out at 37.8 nM; the KD2 (site 2, heterogeneous ligand model) stood at 41.5 nM; the ka1 (site 1, heterogeneous ligand model) came to 186000 M⁻¹ s⁻¹; the ka2 (site 2, heterogeneous ligand model) turned out to be 167000 M⁻¹ s⁻¹. In the experiment with SPARC, this molecule gave a kd1 (site 1, heterogeneous ligand model) of 0.00622 s⁻¹ and a kd2 (site 2, heterogeneous ligand model) of 0.00769 s⁻¹. Further, in experiment [2], the binding result is reported as “binds”.

B3: Recombinant human LOXL2 (R&D Systems, 2639-AO) (enzyme, UniProt Q9Y4K0 26-774, looked up)
chain: B2 chain
notes: recombinant human lysyl oxidase-like 2 (LOXL2), commercial protein; also called immobilized LOXL2; source: bought: R&D Systems, BioTechne, 2639-AO
B3: the binding result in experiment [3] was “binds”.
